This note sets out measurements from PMC10847457 (Cell Discovery, 2024).

The target in the assay is MERS-CoV S trimer (stabilized soluble S2P) (MERS-CoV, strain not named; stand-in …, UniProt K9N5Q8, stabilised). As to the kind of experiment: ELISA. The conditions noted are these: both partners purified. In general terms: An ELISA detects its analyte on a solid surface through an enzyme-linked reagent.

B1: PW5-535 (antibody, V domains shown)
VH: EVRLVESGGGLVQPGGSLRLSCAASGFTFRNYDIHWVRQTTGKGLEWVSAVGTSGDTYYLDSVKGRFTISREDAKKSVYLQMNSLRAGDTAMYYCVRGDASPDNIYYYMDVWGTGTRVIVSS
VL: DIQVTQSPSPLSASVGDRVTITCRASQTIGKYLNWYHQIPGKAPKLLISAASTLHSGVPSRFSGRGSGTDFTLTISSLQPEDFGTYYCQQSYSSPPWTFGQGTKVEIK
For the molecule B1, the binding result is “binds”.

B2: PW5-5 (antibody, V domains shown)
VH: QVQLVQSGAEVKKPGASVKVSCKTSGYTFTDHYMYWVRQAPGQGLEWMGVINPDAGSVTYAQKFQGRVTMTSDTSTSTVYMELSSLRSEDTAVYYCARDLFFIPAANSFDYWGQGTLVTVSS
VL: EIVLTQSPATLSLSPGERATLSCRASQSVSSYLAWYQQKPGQAPRLLIYDATNRATGIPARFSGSGSGTDFTLTISSLEPEDFAVYYCQHRSNWPRMFTFGQGTKLEIK
notes: also called PW5-5 IgG; IgG PW5-5
B2: the binding result was “binds”.
